Non-standard residues stand in square brackets, D forms with d. No end group written: not given here. pY = N[C@@H](Cc1ccc(OP(=O)(O)O)cc1)C(=O)O
Target: GST-fused Grb2 SH2 domain (human, UniProt P62993 60-152)
Assay: peptide or protein array
Conditions: both partners purified

GST-fused Grb2 SH2 domain, sequence (P62993 60-152): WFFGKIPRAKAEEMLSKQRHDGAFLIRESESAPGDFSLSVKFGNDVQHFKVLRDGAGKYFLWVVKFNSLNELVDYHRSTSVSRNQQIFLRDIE

Binder: DPS[pY]VNVQNL [Shc1 pTyr317 peptide (DPSpYVNVQNL) on the permutation array]
- binding result: binds

From PMC6208348 (Nature Communications, 2018)
